# Source: patent publication US20240043507A1 (RQ BIOTECHNOLOGY, published 2024)
# B1: mAb 316 (antibody, V domains shown)
# VH: not shown
# VL: QAVLTQPPSASGSPGQSVTISCTGTSSDVGGYNYVSWYQQHPGKAPKLMIYEVSKRPSGVPDRFSGSKSGNTASLTVSGLQAEDEADYYCSSYAGSNHWVFGGGTKLTVL
# B2: mAb 158 (antibody, V domains shown)
# VH: EVQLLESGGDLIQPGGSLRLSCAASGVTVSSNYMSWVRQAPGKGLEWVSIIYPGGSTFYADSVKGRFTISRDNSKNTLYLQMHSLRAEDTAVYYCARDLGSGDMDVWGKGTTVTVSS
# VL: DIVMTQSPSFLSASVGDRVTITCRASQGISSYLAWYQQKPGKAPKLLIQAASTLQSGVPSRFSGSGSGTEFTLTISSLQPEDFATYYCQQLNSYRYTFGQGTKVEIK
# Tests used:
# [1] = target: T1, SARS-CoV-2 spike on whole virus (SARS-CoV-2/human/AUS/VIC01/2020, Victoria) (SARS-CoV-2, UniProt P0DTC2 14-1273)
# [2] = target: T1, SARS-CoV-2 spike on whole virus …; assay: cell-based or functional assay
Binder,EC50 (read off the curve) [1],Neutralisation IC50 (FRNT) [2]
B1,~0.1 nM,0.01 mg/L
B2,~0.5 nM,0.034 mg/L
